We go through 1 substance from patent publication US10131691B2, “Compositions and methods for specific regulation of pyruvate dehydrogenase kinase” (THE BOARD OF TRUSTEES OF THE LELAND STANFORD JUNIOR …, priority 2011, dated 2018).

In one assay the target is βIPKC (Homo sapiens, UniProt P05771). Put plainly: Proteinase K sensitivity of βIPKC. The format is binding.
A further assay relates to Drp1. Put plainly: Drp1 phosphorylation in hearts subjected to I/R. Also on record: species or system rat. As to the method: An ex vivo model of acute ischemic heart damage was used, which involves a 30 min equilibration period, followed by 30 min of global ischemia, which in turn is followed by 60 min of reperfusion. The hearts were perfused with 1 μM TAT or TAT-conjugated peptide. Normoxic control hearts were subjected to 90 min perfusion in the absence of ischemia. Coronary effluent was collected to determine creatine phosphokinase (CPK) release during the first 30 min of the reperfusion period. At the end of the reperfusion period, hearts were sliced into 1-mm-thick transverse sections and incubated in triphenyltetrazolium chloride solution (TTC, 1% in phosphate buffer, pH 7.4) at 37° C. for 15 min. Infarct size was expressed as a percentage of the risk zone (equivalent to total LV muscle mass) (methods described in Brandman et al., 2007, J. Biol. Chem., 282:4113-4123; Inagaki et al., 2003, Circulation, 108:869-875).

No end group written: not given here.

Sequence of βIPKC (P05771 whole entry, the tested form may be a part): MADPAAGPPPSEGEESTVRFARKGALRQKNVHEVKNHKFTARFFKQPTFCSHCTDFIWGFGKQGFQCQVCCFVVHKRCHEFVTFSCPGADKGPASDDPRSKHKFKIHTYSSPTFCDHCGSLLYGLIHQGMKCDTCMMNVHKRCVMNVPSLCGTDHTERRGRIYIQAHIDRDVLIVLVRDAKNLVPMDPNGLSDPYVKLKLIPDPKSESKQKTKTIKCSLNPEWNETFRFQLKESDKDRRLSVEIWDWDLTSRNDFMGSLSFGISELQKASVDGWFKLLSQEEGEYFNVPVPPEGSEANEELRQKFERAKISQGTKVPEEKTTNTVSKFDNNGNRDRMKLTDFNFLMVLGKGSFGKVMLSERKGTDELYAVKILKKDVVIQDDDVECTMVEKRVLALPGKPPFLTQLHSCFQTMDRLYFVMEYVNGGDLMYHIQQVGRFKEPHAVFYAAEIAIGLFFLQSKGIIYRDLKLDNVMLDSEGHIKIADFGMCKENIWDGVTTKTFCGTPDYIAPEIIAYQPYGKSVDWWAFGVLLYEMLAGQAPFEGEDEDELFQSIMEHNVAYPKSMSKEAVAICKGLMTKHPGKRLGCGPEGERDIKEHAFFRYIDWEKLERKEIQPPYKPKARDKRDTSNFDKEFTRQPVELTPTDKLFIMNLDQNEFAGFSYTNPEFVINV

For the substance “ALSTER (not fully specified (C-terminus); also: TAT47-57 conjugated via disulfide) [ΨPDK, for cells and hearts conjugated to TAT47-57 via disulfide bond]”, the “sensitivity of βIPKC to proteolysis by PK” value with βIPKC is “unaffected”. Moreover, the Drp1 phosphorylation result with Drp1 was “caused an increase of Drp1 phosphorylation”.
